Assay results published in the supplement of paper PMC10126150.
± gives the standard deviation of the averaged measurements.

Tested on: ATP
Assay: switch fluorescence ratio, 500 uM ATP over buffer (Cy3 cluster intensity, sum of 5 cycles each) (fold (ratio)); higher = stronger signal-on switching upon ATP binding; sequences stand for … in TCGTCGGCAGCGTCAGATGTGTATAAGAGACAGTTTTTTTTTTTTTTTTTTTTTTTTT…TC
Conditions: aptamer strand: ATP DNA aptamer (quencher-CACCTGGGGGAGTATTGCGGAGGAAGG + anchor), 100 nM annealed; ATP concentration: 500 uM
How it was run: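 Clusters with intensities outside 100-1000 RFU were excluded. The remaining Cy3-labelled switching-strand clusters on a modified Illumina MiSeq flow-cell had been annealed to 100 nM quencher-labelled ATP aptamer and imaged in selection buffer, then after 15 min with 500 uM ATP at 22 °C, for five cycles separated by NaOH stripping and re-annealing. The fluorescence ratio, averaged per switch-domain sequence, is each cluster's summed target-cycle Cy3 intensity over its summed buffer-cycle Cy3 intensity.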
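Note: ATP exposure 15 min at 22 °C before imaging.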

| Sequence | switch fluorescence ratio |
| --- | --- |
| TTTGATTAGG | 1.01 ± 0.04 |
| TTTGCAAACT | 0.994 ± 0.017 |
| TTTGCAACGA | 1.25 ± 0.31 |
| TTTGCAATTA | 1.57 ± 0.5 |
| TTTGCACGTT | 1.03 ± 0.037 |
| TTTGCAGGGT | 1.03 ± 0.025 |
| TTTGCATACT | 2.75 ± 2.4 |
| TTTGCATGCA | 1.03 ± 0.02 |
| TTTGCCAAAC | 1.52 ± 0.55 |
| TTTGCCGATG | 0.985 ± 0.013 |
| TTTGCCGGAC | 1.04 ± 0.062 |
| TTTGCCGGGG | 1.02 ± 0.06 |
| TTTGCCTCAA | 1.01 ± 0.011 |
| TTTGCCTTTG | 0.9991 ± 0.0076 |
| TTTGCGCCGT | 1.02 ± 0.058 |
| TTTGCGGACC | 1.05 ± 0.025 |
| TTTGCGTTTC | 1.07 ± 0.039 |
| TTTGCTAAAT | 1.02 ± 0.02 |
| TTTGCTAGGT | 1.02 ± 0.031 |
| TTTGCTGACG | 1.02 ± 0.055 |
| TTTGCTGTTG | 0.965 ± 0.037 |
| TTTGCTGTTT | 1.01 ± 0.013 |
| TTTGCTTACG | 1.1 ± 0.13 |
| TTTGCTTTAA | 1 ± 0.067 |
| TTTGCTTTTG | 0.988 ± 0.021 |
| TTTGGACTAT | 1.012 ± 0.0038 |

| Sequence | switch fluorescence ratio |
| --- | --- |
| TTTGGAGGAT | 0.978 ± 0.029 |
| TTTGGAGGGC | 1.06 ± 0.065 |
| TTTGGATACA | 0.9739 ± 0.0012 |
| TTTGGATCGT | 0.981 ± 0.025 |
| TTTGGATGGA | 1.02 ± 0.023 |
| TTTGGATGGT | 0.996 ± 0.02 |
| TTTGGCGCAC | 1.06 ± 0.015 |
| TTTGGCGCTG | 0.984 ± 0.019 |
| TTTGGCGTGC | 1 ± 0.045 |
| TTTGGCTGGG | 0.985 ± 0.02 |
| TTTGGCTTAC | 1.55 ± 0.72 |
| TTTGGCTTGG | 0.992 ± 0.031 |
| TTTGGCTTTT | 1.06 ± 0.18 |
| TTTGGGAAAA | 1.05 ± 0.038 |
| TTTGGGACGT | 0.978 ± 0.03 |
| TTTGGGAGGG | 0.969 ± 0.02 |
| TTTGGGATTA | 0.983 ± 0.041 |
| TTTGGGCCCG | 0.9936 ± 0.0014 |
| TTTGGGCGGG | 1.01 ± 0.033 |
| TTTGGGGACG | 1.01 ± 0.019 |
| TTTGGGGAGC | 0.986 ± 0.045 |
| TTTGGGGCAG | 1.06 ± 0.078 |
| TTTGGGGCGT | 1 ± 0.035 |
| TTTGGGGCT | 0.957 ± 0.039 |
| TTTGGGGGAG | 1.01 ± 0.027 |
| TTTGGGGGGG | 1 ± 0.051 |

| Sequence | switch fluorescence ratio |
| --- | --- |
| TTTGGGGTAA | 0.991 ± 0.029 |
| TTTGGGGTGC | 1.09 ± 0.12 |
| TTTGGGGTGT | 1.01 ± 0.06 |
| TTTGGGGTTC | 1.02 ± 0.044 |
| TTTGGGTATG | 0.992 ± 0.026 |
| TTTGGGTCTT | 1.02 ± 0.013 |
| TTTGGGTTCG | 0.986 ± 0.019 |
| TTTGGGTTGG | 1.03 ± 0.13 |
| TTTGGTAAGT | 1.022 ± 0.01 |
| TTTGGTACTT | 0.986 ± 0.039 |
| TTTGGTAGGG | 1.02 ± 0.021 |
| TTTGGTGCTG | 0.983 ± 0.06 |
| TTTGGTGGTA | 0.984 ± 0.03 |
| TTTGGTTCAG | 0.994 ± 0.018 |
| TTTGGTTTGT | 1.1 ± 0.19 |
| TTTGGTTTTG | 0.995 ± 0.038 |
| TTTGTAAGCC | 1.06 ± 0.011 |
| TTTGTAAGTT | 0.995 ± 0.03 |
| TTTGTAATTG | 1.008 ± 0.01 |
| TTTGTAATTT | 1.01 ± 0.021 |
| TTTGTAGACG | 1.04 ± 0.062 |
| TTTGTAGATC | 1.06 ± 0.066 |
| TTTGTAGGGT | 0.971 ± 0.011 |
| TTTGTATTGC | 1.01 ± 0.025 |
| TTTGTATTGT | 1.019 ± 0.0089 |
